Measured values taken from the NTF2 design screens of Basanta et al. (2020).

Assay: protease stability score; higher = more stable; yeast display proteolysis, trypsin and chymotrypsin;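 note: log10 excess protease needed over predicted unfolded state with 0 meaning unfolded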

| Sequence | protease stability score |
| --- | --- |
| DDEAVRAMKRWMDALKTGDPDHLKNNIDPNANIDVGDKRVHGREQIMTMVEKELHEIKITITSINFEDHGDKAVVIINYIRDHNGRPQSNRATLEAEVHNGRIKELKMKDDK | 0.468 |
| DDEAVRQIQTMVRNQNTGDPDKVAEQMDPNVQVDYGDTNLQGREHVHHWLEELKRQARFELTSVKAESQGDNIHVQVDRKVNVNGQPRRDEMHFEVRVHNGRIRSVDIQFDPDKYRQIMS | -0.28 |
| DDEDADKAQRILETGNPDEMDKLLDKDVRVVVGDKEYKGREQVSEFFRRLLEQVDTITFLSVEIHNGTVQARVLVNVNGHNVDVVFQFVVHNGKLKHAKVEARNEEEQKKLDRALS | 1.55 |
| DDEDADRMVKLIRTNDPETFARQMDPNARVEVGDKKVHGREEALKLLSELYNQADHFQVKSISRHNGRVTVDAILVVNGRTMRARIEVVVHNGRVKSARVKFTNPEDQKQMRRNVQ | -0.185 |
| DDEDAHRVADDANKALERGDERRLKELFDKDVRLHYGDKHVRGREEFEDWVQEWLRTVDKIRVEDYKVHDGVVRIRIRVDINGKDVSQTIDLDVKNGTIVNVVIKDN | 1.43 |
| DDEDAKHLMQVLQNGDEDRFAELVDENAHQTIGDKTIHGRSEFDRIHEKLKKRIDNFRVNDYRIDNGSVNADVSANVNGQKIRFKYQAHVTNGHIKEMRFQATDPRQEDKWHEMQK | -0.031 |
| DDEDAKRWEKFLKLQQEGNDSEMRKLVDENASFDVGNKHYSGMTTMAHELVRHAHDIRLEYKDVKIDVSGEQIYVTMEVTVNINGQPVRYTNVLEVTMHNGKVKTATNRIPEDVEREIRQ | 0.034 |
| DDEDDKRLADEFNTAVKQGDEDQLKNLMDEDATAEIGDKQLTGRENAAKHLVTLARHADHIQVNSVRVHDGRIRIDMRMIFNGQDHHYDIKIEVHNGRIKRMTVRNK | 1.6 |
| DDEDEHKFATRMAEILHTGDPDRFQEQVDENVEARYGDKEYHGDEQAKTAFKHVVERVDTVEIKHMDAKNGKVSVHFVLDYDGEKQHVTLNVELHNGKAQRVEFQTQ | 0.144 |
| DDEDFKKFKELVETGDWSSLRKQADKNVRQRVGDKQIHGKEEFSRLLKHLQDQIDHVEIKHMQDEPNHLRVDVVWNINGVRVRFQYIVELSNGHIKYIKIDVTDENKLTKLQDLLQ | 0.491 |
| DDEDKAREFQRHLLRLVRTNNEKDLHNMADPNVKVVIGDKVYSGRDDVAKAHAELRRNVDHINLEIKSVSHKNGRMKVEAEVIYDHNGKKDKRTMTAVIDRHNGKNVLVHMNIQ | 1.65 |
| DDEDNKRKAEEFVRLMHTGDEERIKELFDPNVKAVIGDKEYHGRDTVADWARRLREQADHFDVHRMTAQGDRVHVDMFVTHNGRTKRVVIVLKYHNGRVEEIKVQDG | 2.28 |
| DDEDQKSTAEEIAKALQTGDKDKVTELFDEDARLKIGDTEFHGREQVSRAVHEIKTRVDHMELKDMEFTGDHVRIVYIANVDGHHATFVAHVVLNNGTAKSMSLSVRDERDKESVDK | 0.276 |
| DDEDQRDQVRRLSKQMQTGDPNKVRQLLDPNAEVHIGDTTVHGREEVMRSQDKLRKRIDHFEMQDMKVDGESVVAHAVFRVDGKDITLEVRARYTNGRVKKMSFNPEAITRIRS | 0.127 |
| DDEDRKKADEMLKALKHGDPDRVRELMDPNAKAVYGDKRIRGRDDFVEDMFRKQREIKIDMKIEEFRVNGNHAVFTVDVIEDKDGRPKRFKARVVITLHNGKIIDIKVEEEH | 1.25 |
| DDEDVNRHAESISRALERGDEERLLELLDENVTVEYGDKRVHGREEIERFLREFHRHADHIKVDRVKARGNKVRIRAVNDYDGRKVDYVFHFQFENGRVRKVKIEEK | 1.29 |
| DDEDWHRLAERLFTALRTGDWKELLKMMDPNVNINIGDQTYHGRKDLKNWAQHMREEVDHVEIKSIRIQGNKIVLDITYVTNGQRQNVIFVFSIHNGKVKHVHAKTK | 1.14 |
| DDEEADKIVEELVKAMEHNDEKHFMELVDPNAKVRYGDTEYHGEDQIQTMFREIVEQADTVQVRSYRVENGEARVEANFRVNGRNAIVTMSATFHNGRVQSLRLHARDEEDRNKLDN | 0.999 |
| DDEEAKRVAEEVIKAMQKGDEEHFDRLVDPDVRLNVGDKVLHGRRDLRRWVKEVADKADHVQVDDVKVNNGTAKIRFRIDINGQTEEVIMHIHVTNGEVKSMRVQRT | 1.43 |
| DDEEALKVIHHFIEVMMSGDEETARRLADKNVEAHYGDRTYHGSEEAVRALIEWARSVDNMRIDSVTQEGNEVKVHVVAHFDGRRVEVDIVIEAHNGKINFVTINPDDIRRMKQ | 0.831 |
